# Experiments:
# [1] = molecular target: SARS-COV-2 S protein (Wuhan-Hu-1, WT) on MLV pseudotyped particles (SARS-COV-2, UniProt P0DTC2 14-1254); assay: cell-based or functional assay
# [2] = molecular target: spike protein of authentic SARS-COV-2 virus (USA_WA1/2020) (SARS-COV-2, UniProt P0DTC2 14-1273); assay: cell-based or functional assay
# [3] = molecular target: T1, mitochondrial elongation factor 1 (MIEF1) (human, UniProt Q9NQG6 1-463); assay: flow cytometry validation after the membrane proteome array screen
# T1 construct: whole, on cells
# [4] = molecular target: SARS-COV-2 spike protein receptor binding domain fused to an Fc tag (RBD-Fc, residues 319-541) (Sino … (SARS-COV-2, UniProt P0DTC2 319-541))
# T1 sequence (Q9NQG6 whole entry): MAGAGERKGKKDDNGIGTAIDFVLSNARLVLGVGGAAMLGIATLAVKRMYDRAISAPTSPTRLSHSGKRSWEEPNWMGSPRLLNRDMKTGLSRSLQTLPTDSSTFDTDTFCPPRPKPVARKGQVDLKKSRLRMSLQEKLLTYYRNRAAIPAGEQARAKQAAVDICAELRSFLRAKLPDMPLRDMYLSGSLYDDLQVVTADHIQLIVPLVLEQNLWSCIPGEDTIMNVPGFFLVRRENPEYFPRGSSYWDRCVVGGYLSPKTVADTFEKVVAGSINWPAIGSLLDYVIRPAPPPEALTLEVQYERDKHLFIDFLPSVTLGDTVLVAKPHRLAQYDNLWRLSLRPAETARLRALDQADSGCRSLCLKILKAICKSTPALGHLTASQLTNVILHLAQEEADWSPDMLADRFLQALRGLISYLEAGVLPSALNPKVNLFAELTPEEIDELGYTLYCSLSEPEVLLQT
Binder,"IC50, pseudotyped particle entry assay, wildtype particles [1] [nM]","IC50, SARS-COV-2 live virus (CPE) assay on Vero E6 cells [2] [nM]","IC50, SARS-COV-2 pseudotyped particle entry assay (HEK293-ACE2 cells) [1] [nM]","IC50, SARS-COV-2 live virus assay, lyophilized and reconstituted RBD-1-2G [2] [nM]","IC50, SARS-COV-2 live virus assay, untreated RBD-1-2G [2] [nM]",binding result [3],IC50 [4] [nM]
RBD-1-2G-Tri (bispecific antibody) EVQLVESGGGLVQPGGSLRLSCAASGFSSIVYMGWFRQAPGKGRELVAAIDASGSTTNYPDSVEGRFTISRDNAKRMVYLQMNSLRAEDTAVYYCAIAYFTSPEYVVSQGWGQGTQVTVSSGGGGSGGGGSGGGGSEVQLVESGGGLVQPGGSLRLSCAASGFSSIVYMGWFRQAPGKGRELVAAIDASGSTTNYPDSVEGRFTISRDNAKRMVYLQMNSLRAEDTAVYYCAIAYFTSPEYVVSQGWGQGTQVTVSSGGGGSGGGGSGGGGSEVQLVESGGGLVQPGGSLRLSCAASGFSSIVYMGWFRQAPGKGRELVAAIDASGSTTNYPDSVEGRFTISRDNAKRMVYLQMNSLRAEDTAVYYCAIAYFTSPEYVVSQGWGQGTQVTVSSHHHHHH,4.5,182,–,–,–,–,–
"RBD-1-2G-Fc (Fc fusion, also called bivalent format of RBD-1-2G) EVQLVESGGGLVQPGGSLRLSCAASGFSSIVYMGWFRQAPGKGRELVAAIDASGSTTNYPDSVEGRFTISRDNAKRMVYLQMNSLRAEDTAVYYCAIAYFTSPEYVVSQGWGQGTQVTVSS",10.2,255,–,–,–,–,–
"single-domain antibody RBD-1-2G (VHH, also called RBD-1-2G Nb; RBD-1-2G nanobody) VHH: EVQLVESGGGLVQPGGSLRLSCAASGFSSIVYMGWFRQAPGKGRELVAAIDASGSTTNYPDSVEGRFTISRDNAKRMVYLQMNSLRAEDTAVYYCAIAYFTSPEYVVSQGWGQGTQVTVSS",512,1210,490,5900,14800,no binding,28.3

# From US20240401239A1 (US Dept. of Health and Human Services, published 2024)
